Source: PMC9909426

Molecular target: Orange Carotenoid Protein variant OCP-W288_BTA (Synechocystis sp. PCC 6803 OCP with Trp288 replaced by 3-benzothienyl-L-alanine) (Synechocystis sp. PCC 6803) (UniProt P74102)
Assay: SEC; preparative SEC, Superdex 200 Increase 10/300, after IMAC and HIC; pink, earlier eluting fraction OCP-W288_BTA(P)

For “Orange Carotenoid Protein variant OCP-W288_BTA (Synechocystis sp. PCC 6803 OCP with Trp288 replaced by 3-benzothienyl-L-alanine) (from UniProt P74102 1-317) (natural protein)”, the stoichiometry N was 2.
